From PMC11283359 (Molecular cell, 2024)

B1: MED31 (endogenous) (natural protein, mouse (endogenous in CH12), UniProt Q9CXU1 1-131, looked up)
chain: MAAAVAMETDDAGNRLRFQLELEFVQCLANPNYLNFLAQRGYFKDKAFVNYLKYLLYWKEPEYAKYLKYPQCLHMLELLQYEHFRKELVNAQCAKFIDEQQILHWQHYSRKRVRLQQALAEQQQQNNTAGK
B2: MED7 (natural protein, mouse (endogenous in CH12), UniProt Q9CZB6 1-233, looked up)
chain: MGEPQQVSALPPPPMQYIKEYTDENIQEGLAPKPPPPIKDSYMMFGNQFQCDDLIIRPLESQGIERLHPMQFDHKKELRKLNMSILINFLDLLDILIRSPGSIKREEKLEDLKLLFVHVHHLINEYRPHQARETLRVMMEVQKRQRLETAERFQKHLERVIEMIQNCLASLPDDLPHSEAGMRVKAEPMDTDDNSNCPGQNEQQRESSGHRRDQIIEKDAALCVLIDEMNERP
B3: MED21 (natural protein, mouse (endogenous in CH12), UniProt Q9CQ39 1-144, looked up)
chain: MADRLTQLQDAVNSLADQFCNAIGVLQQCGPPASFSNIQTAINKDQPANPTEEYAQLFAALIARTAKDIDVLIDSLPSEESTAALQAASLYKLEEENHEAATCLEDVVYRGDMLLEKIQSALADIAQSQLKTRSVTHSHSLPDS

biological target: T1, 3XFLAG-MED26 (knock-in) (mouse (endogenous in CH12), UniProt Q7TN02 1-588); assay: cryo-EM structure
T1 sequence (looked up): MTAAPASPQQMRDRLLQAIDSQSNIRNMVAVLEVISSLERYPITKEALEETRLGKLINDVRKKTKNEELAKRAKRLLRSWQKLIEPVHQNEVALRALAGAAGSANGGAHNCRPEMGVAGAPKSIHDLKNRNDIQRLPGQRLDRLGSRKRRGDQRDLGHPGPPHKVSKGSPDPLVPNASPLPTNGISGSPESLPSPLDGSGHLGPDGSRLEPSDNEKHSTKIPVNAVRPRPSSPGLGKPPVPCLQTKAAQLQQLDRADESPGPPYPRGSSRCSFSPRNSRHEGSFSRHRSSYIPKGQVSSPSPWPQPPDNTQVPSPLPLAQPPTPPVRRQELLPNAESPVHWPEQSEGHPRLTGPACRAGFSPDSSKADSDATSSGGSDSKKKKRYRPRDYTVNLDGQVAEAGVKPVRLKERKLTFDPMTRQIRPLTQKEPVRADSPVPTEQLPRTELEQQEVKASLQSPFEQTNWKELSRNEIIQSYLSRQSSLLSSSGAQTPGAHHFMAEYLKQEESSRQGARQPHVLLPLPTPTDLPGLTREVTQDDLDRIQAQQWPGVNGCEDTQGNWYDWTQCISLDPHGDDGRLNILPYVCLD

Binding result, binds:
B1
B2
B3
